B1: anti-IL-6 antibody, heavy chain WT / light chain M32L, M50D, N52S, M88Q (antibody, IgG1, V domains shown)
VH: EVQLVESGGGLVQPGGSLRLSCAASGFTFSPFAMSWVRQAPGKGLEWVAKISPGGSWTYYSDTVTGRFTFSLDTSKSTAYLQMNSLRAEDTAVYYCARQLWGYYALDIWGQGTLVTVSS
VL: DIQLTQSPSSLSASVGDRVTITCSASISVSYLYWYQQKPGKAPKLLIYDDSSLASGVPSRFSGSGSGTDFTLTISSLQPEDFATYYCQQWSGYPYTFGQGTKVEIK
notes: Full IgG1 (Expi293); VL = variant III
B2: anti-IL-6 antibody, heavy chain T63Q, G66D / light chain M32L, M50D, N52S, M88Q (antibody, IgG1, V domains shown)
VH: B1 VH with T63Q, G66D
VL: B1 VL
notes: as for B1
B3: anti-IL-6 antibody, heavy chain G66D / light chain M32L, M50D, N52S, M88Q (antibody, IgG1, V domains shown)
VH: B1 VH with G66D
VL: B1 VL
notes: as for B1
B4: anti-IL-6 antibody, heavy chain T63K, G66D / light chain M32L, M50D, N52S, M88Q (antibody, IgG1, V domains shown)
VH: B1 VH with T63K, G66D
VL: B1 VL
notes: as for B1
B5: anti-IL-6 antibody, heavy chain T63E, G66D / light chain M32L, M50D, N52S, M88Q (antibody, IgG1, V domains shown)
VH: B1 VH with T63E, G66D
VL: B1 VL
notes: as for B1
B6: anti-IL-6 antibody, heavy chain T65Q, G66D / light chain M32L, M50D, N52S, M88Q (antibody, IgG1, V domains shown)
VH: B1 VH with T65Q, G66D
VL: B1 VL
notes: as for B1
B7: anti-IL-6 antibody, heavy chain S35H, G66D / light chain M32L, M50D, N52S, M88Q (antibody, IgG1, V domains shown)
VH: B1 VH with S35H, G66D
VL: B1 VL
notes: as for B1
B8: Anti-IL-6 antibody, heavy chain S35H, G66D, L100T / light chain M32L, M50D, N52S, M88Q (antibody, IgG1, V domains shown)
VH: B1 VH with S35H, G66D, L100T
VL: B1 VL
notes: IgG1; variable domains only; VL is variant III
B9: Anti-IL-6 antibody, heavy chain S35H, G66D, L100V / light chain M32L, M50D, N52S, M88Q (antibody, IgG1, V domains shown)
VH: B1 VH with S35H, G66D, L100V
VL: B1 VL
notes: as for B8
B10: Anti-IL-6 antibody, heavy chain S35H, G66D, L100K / light chain M32L, M50D, N52S, M88Q (antibody, IgG1, V domains shown)
VH: B1 VH with S35H, G66D, L100K
VL: B1 VL
notes: as for B8
B11: Anti-IL-6 antibody, heavy chain S35H, G66D / light chain M32L, M50D, N52S, M88Q (antibody, IgG1, V domains shown)
VH: B1 VH with S35H, G66D
VL: B1 VL
notes: as for B8
B12: Anti-IL-6 antibody, heavy chain S35H, G66D, L100A / light chain M32L, M50D, N52S, M88Q (antibody, IgG1, V domains shown)
VH: B1 VH with S35H, G66D, L100A
VL: B1 VL
notes: as for B8
B13: Anti-IL-6 antibody, heavy chain WT / light chain WT (antibody, IgG1, V domains shown)
VH: B1 VH
VL: B1 VL with L32M, D50M, S52N, Q88M
notes: IgG1; variable domains only; also called parent; wild-type
B14: Anti-IL-6 antibody, heavy chain S35H, G66D, L100S / light chain M32L, M50D, N52S, M88Q (antibody, IgG1, V domains shown)
VH: B1 VH with S35H, G66D, L100S
VL: B1 VL
notes: as for B8
B15: Anti-IL-6 antibody, heavy chain S35H, G66D, L100G / light chain M32L, M50D, N52S, M88Q (antibody, IgG1, V domains shown)
VH: B1 VH with S35H, G66D, L100G
VL: B1 VL
notes: as for B8
B16: Anti-IL-6 antibody, heavy chain S35H, G66D, L100Q / light chain M32L, M50D, N52S, M88Q (antibody, IgG1, V domains shown)
VH: B1 VH with S35H, G66D, L100Q
VL: B1 VL
notes: as for B8
B17: anti-IL-6 antibody, heavy chain WT / light chain M32L, M50D, N52S, M88Q (antibody, human IgG1, V domains shown)
VH: B1 VH
VL: B1 VL
notes: Human IgG1
B18: anti-IL-6 antibody, heavy chain S35H, G66D / light chain M32L, M50D, N52S, M88Q (antibody, human IgG1, V domains shown)
VH: B1 VH with S35H, G66D
VL: B1 VL
notes: Human IgG1
B19: anti-IL-6 antibody, heavy chain G66D / light chain M32L, M50D, N52S, M88Q (antibody, human IgG1, V domains shown)
VH: B1 VH with G66D
VL: B1 VL
notes: Human IgG1
B20: anti-IL-6 antibody, heavy chain T63K, G66D / light chain M32L, M50D, N52S, M88Q (antibody, human IgG1, V domains shown)
VH: B1 VH with T63K, G66D
VL: B1 VL
notes: Human IgG1
B21: anti-IL-6 antibody, heavy chain T63E, G66D / light chain M32L, M50D, N52S, M88Q (antibody, human IgG1, V domains shown)
VH: B1 VH with T63E, G66D
VL: B1 VL
notes: Human IgG1

Positions count from the first letter of the chain named. Names and notes keep the numbering of the source.

The first experiment addresses T1, human IL-6 (human, UniProt P05231 30-212).
T1 construct: IL-6 flowed over captured antibodies
Kind of experiment: SPR Biacore, purified Ab on Protein A chip, 37 C. The protocol: (§1) Antibodies were captured on a Protein A chip (GE) by injecting 1:20 cell supernatant dilutions at 10 μL/min for 60 seconds. […] The sensor chip was regenerated by a 60 seconds injection of 10 mM Glycine pH 1.7 at the flow rate of 50 μL/min. […] For this setup, 1 μg/mL of purified antibody was injected over a Protein A chip at 10 μL/min for 25 seconds. […] The sensor chip was regenerated by a 60 seconds injection of 10 mM Glycine pH 1.7 at flow rate of 50 μL/min. Data analysis for supernatant and purified samples were performed using BIAevaluation software (GE). All sensorgrams were double reference subtracted and fit using a 1:1 Langmuir binding model.
(In general: In SPR one partner is held on a chip, and binding of the other changes the refractive index at the surface.)
T1 sequence (P05231 30-212 limits assumed): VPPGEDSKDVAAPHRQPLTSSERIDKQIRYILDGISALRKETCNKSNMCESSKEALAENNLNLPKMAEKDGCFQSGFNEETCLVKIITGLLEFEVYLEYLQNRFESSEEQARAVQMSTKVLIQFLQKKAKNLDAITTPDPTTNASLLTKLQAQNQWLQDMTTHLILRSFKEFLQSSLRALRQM
B1 displayed a Kd of 0.286 nM, a koff of 0.000319 s⁻¹ and an on-rate (kon) of 1.12e+06 M⁻¹ s⁻¹.
For B2 the same measures were 0.201 nM, 0.000341 s⁻¹ and 1.69e+06 M⁻¹ s⁻¹.
On the same counts, the results for B3 are 0.244 nM, 0.000412 s⁻¹ and 1.69e+06 M⁻¹ s⁻¹.
As to B4, the dissociation constant Kd was 0.252 nM, the koff was 0.000401 s⁻¹ and the kon stood at 1.59e+06 M⁻¹ s⁻¹.
For B5 the same measures were 0.198 nM, 0.000327 s⁻¹ and 1.65e+06 M⁻¹ s⁻¹.
On to B6, for which binding was characterised by a dissociation constant (Kd) of 0.209 nM, the koff is 0.00038 s⁻¹ and the kon worked out at 1.82e+06 M⁻¹ s⁻¹.
On to B7, for which the dissociation constant (Kd) turned out to be 0.212 nM, the koff was 0.000254 s⁻¹ and the association rate constant (kon) was determined as 1.2e+06 M⁻¹ s⁻¹.

Another experiment concerns the target T2, human IL-6 (human, UniProt P05231 30-212). Kind of experiment: SPR Biacore, supernatant, Protein A capture, 37 C. Summed up: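 Antibodies from 1:20-diluted culture supernatant in HBS-EP+ were captured on a Protein A chip at 37 C, with 10 mM glycine pH 1.7 regeneration. Sensorgrams were double-reference subtracted and fitted to a 1:1 Langmuir model.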
T2 sequence (P05231 30-212 limits assumed): as above
For the molecule B8, the Kd is 0.204 nM, the koff came to 0.00278 s⁻¹ and the on-rate constant (kon) was found to be 1.36e+07 M⁻¹ s⁻¹.
Turning to B9, the equilibrium dissociation constant (Kd) is 0.184 nM, the koff was 0.000922 s⁻¹ and the on-rate constant (kon) amounted to 5.01e+06 M⁻¹ s⁻¹.
On the same counts, the results for B10 are 0.191 nM, 0.000822 s⁻¹ and 4.29e+06 M⁻¹ s⁻¹.
For B11 the same measures were 0.403 nM, 0.000607 s⁻¹ and 1.5e+06 M⁻¹ s⁻¹.
For B12 the same measures were 0.0834 nM, 0.00486 s⁻¹ and 5.82e+07 M⁻¹ s⁻¹.
B13 came in with a Kd of 0.649 nM, a dissociation rate constant (koff) of 0.000559 s⁻¹ and an on-rate constant (kon) of 861000 M⁻¹ s⁻¹.
For B14 the same measures were 0.114 nM, 0.000913 s⁻¹ and 8.03e+06 M⁻¹ s⁻¹.
For B15 the same measures were 0.233 nM, 0.0016 s⁻¹ and 6.87e+06 M⁻¹ s⁻¹.
For B16 the same measures were 0.148 nM, 0.000734 s⁻¹ and 4.97e+06 M⁻¹ s⁻¹.

A further experiment has as its target T2, human IL-6. Kind of experiment: SPR Biacore, purified, Protein A capture, 37 C. The method, then:
as §1
Molecule B8 showed a dissociation constant (Kd) of 0.263 nM, a koff of 0.000481 s⁻¹ and a kon of 1.83e+06 M⁻¹ s⁻¹.
For B9 the same measures were 0.238 nM, 0.000385 s⁻¹ and 1.62e+06 M⁻¹ s⁻¹.
On the same counts, the results for B10 are 0.188 nM, 0.000279 s⁻¹ and 1.49e+06 M⁻¹ s⁻¹.
In the case of B11, the Kd stood at 0.195 nM, the off-rate constant (koff) is 0.000238 s⁻¹ and the kon was 1.22e+06 M⁻¹ s⁻¹.
For B12 the same measures were 0.109 nM, 0.000406 s⁻¹ and 3.72e+06 M⁻¹ s⁻¹.
For B13 the same measures were 0.214 nM, 0.000132 s⁻¹ and 615000 M⁻¹ s⁻¹.
Consider B14, for which binding was put at a Kd of 0.117 nM, the koff came out at 0.000424 s⁻¹ and the kon is 3.61e+06 M⁻¹ s⁻¹.
For B15 the same measures were 0.251 nM, 0.000694 s⁻¹ and 2.76e+06 M⁻¹ s⁻¹.
Turning to B16, binding was put at a Kd of 0.149 nM, the koff turned out to be 0.000336 s⁻¹ and the association rate constant (kon) was 2.26e+06 M⁻¹ s⁻¹.

A further experiment addresses T3, human IL-6 (human, UniProt P05231 30-212). Kind of experiment: SPR (Biacore), purified antibody on Protein A chip, IL-6 flowed, 37 C. The method, then:
as §1
T3 sequence (P05231 30-212 limits assumed): as above
With B17, the dissociation constant (Kd) was 0.286 nM, the koff was 0.000319 s⁻¹ and the on-rate constant (kon) was determined as 1.12e+06 M⁻¹ s⁻¹.
On to B18, for which the Kd turned out to be 0.212 nM, the off-rate constant (koff) was 0.000254 s⁻¹ and the kon was 1.2e+06 M⁻¹ s⁻¹.
B19: the equilibrium dissociation constant (Kd) came to 0.244 nM, the off-rate (koff) is 0.000412 s⁻¹ and the kon came to 1.69e+06 M⁻¹ s⁻¹.
For B20 the same measures were 0.252 nM, 0.000401 s⁻¹ and 1.59e+06 M⁻¹ s⁻¹.
For B21 the same measures were 0.198 nM, 0.000327 s⁻¹ and 1.65e+06 M⁻¹ s⁻¹.

The next experiment deals with T1, human IL-6. Kind of experiment: SPR Biacore, supernatant Ab on Protein A chip, 37 C.
For B1, the affinity, expressed as Kd, was 0.611 nM; the koff came out at 0.000414 s⁻¹; the on-rate (kon) was 677000 M⁻¹ s⁻¹.
Consider B2, for which the Kd worked out at 0.259 nM, the off-rate (koff) is 0.000461 s⁻¹ and the association rate constant (kon) was 1.78e+06 M⁻¹ s⁻¹.
On the same counts, the results for B3 are 0.296 nM, 0.000483 s⁻¹ and 1.63e+06 M⁻¹ s⁻¹.
On the same counts, the results for B4 are 0.246 nM, 0.000529 s⁻¹ and 2.15e+06 M⁻¹ s⁻¹.
For B5 the same measures were 0.242 nM, 0.000485 s⁻¹ and 2e+06 M⁻¹ s⁻¹.
On to B6, for which the Kd amounted to 0.258 nM, the koff was determined as 0.000562 s⁻¹ and the on-rate constant (kon) was determined as 2.18e+06 M⁻¹ s⁻¹.
Turning to B7, binding was put at a Kd of 0.166 nM, the koff was determined as 0.000539 s⁻¹ and the on-rate (kon) is 3.24e+06 M⁻¹ s⁻¹.

The next experiment deals with T3, human IL-6. In words: SPR (Biacore), supernatant antibody on Protein A chip, IL-6 flowed, 37 C.
Consider B17, for which the dissociation constant (Kd) amounted to 0.611 nM, the koff stood at 0.000414 s⁻¹ and the kon worked out at 677000 M⁻¹ s⁻¹.
For B18 the same measures were 0.166 nM, 0.000539 s⁻¹ and 3.24e+06 M⁻¹ s⁻¹.
On the same counts, the results for B19 are 0.296 nM, 0.000483 s⁻¹ and 1.63e+06 M⁻¹ s⁻¹.
B20: the affinity, expressed as Kd, was 0.246 nM; the off-rate (koff) was found to be 0.000529 s⁻¹; the kon was found to be 2.15e+06 M⁻¹ s⁻¹.
On the same counts, the results for B21 are 0.242 nM, 0.000485 s⁻¹ and 2e+06 M⁻¹ s⁻¹.

For orientation: Kd means the concentration at which binding is half-saturated. A low value points to higher affinity. By koff is commonly meant a measure of how fast the partners let go of each other. Low readings indicate slow dissociation, high ones fast dissociation. Usually kon stands for the second-order rate constant of association.

Values taken from patent publication US20240209076A1 (KODIAK SCIENCES, published 2024).
